Tests used:
[1] = molecular target: human CD3 on primary T cells (human, UniProt P07766 23-207); assay: cell-based or functional assay
[2] = molecular target: T1, human CD20 on the cell surface (human, UniProt P11836 1-297); assay: cell-based or functional assay
T1 sequence (looked up): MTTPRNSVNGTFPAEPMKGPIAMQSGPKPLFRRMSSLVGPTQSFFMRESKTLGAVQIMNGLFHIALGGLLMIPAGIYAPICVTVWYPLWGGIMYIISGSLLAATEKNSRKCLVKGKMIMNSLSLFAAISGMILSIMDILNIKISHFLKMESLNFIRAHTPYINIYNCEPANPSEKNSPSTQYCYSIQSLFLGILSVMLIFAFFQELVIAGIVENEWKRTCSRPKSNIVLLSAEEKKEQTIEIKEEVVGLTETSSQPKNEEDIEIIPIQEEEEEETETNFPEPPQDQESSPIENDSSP

[3] = molecular target: T2, cynomolgus monkey CD79b antigen (cynomolgus monkey); assay: SPR Biacore 8k, cyno CD79b injected up to 3000 nM
T2 construct: also called cyno CD79b; CD9W1.001
Protocol: General Protocol for SPR Affinity Assessment: Affinity assessment of the bispecific trispecific constructs against human CD79b were measure using recombinantly expressed extracellular domain of CD79b short and long isoforms (CD9W7.001 and CD9W8.001, respectively) by Surface Plasmon Resonance (SPR) using a Biacore 8k SPR system (Biacore) at 25° C. in HBSP+ buffer. Cross-reactivity of the same antibody panel was also assessed against cyno and mouse antigens (CD9W1.001 and CD9W105.001, respectively). Briefly, a C1 sensor chip was immobilized with anti-human Fc (target immobilization levels of >400 RU) using vendor recommended amino coupling protocol. […] The association and dissociation phases were measured for 2 or 3 minutes and 30 minutes, respectively.
The raw binding sensorgrams were processed using Biacore Insight software (Biacore) by double-referencing and the processed sensorgrams were analyzed for cross-reactivity and fitted to a 1:1 Langmuir model to obtain on-rates, off-rates and affinities.

Chain of human CD3 on primary T cells (P07766 23-207): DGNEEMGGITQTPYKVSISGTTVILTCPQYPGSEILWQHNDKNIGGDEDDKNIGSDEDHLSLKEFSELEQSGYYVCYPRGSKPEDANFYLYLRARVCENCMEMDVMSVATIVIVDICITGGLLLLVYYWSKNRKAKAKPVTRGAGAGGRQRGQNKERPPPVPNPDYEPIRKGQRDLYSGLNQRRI

B1: mosunetuzumab (bispecific antibody)
chain 1: not shown
chain 2: DIQMTQSPSSLSASVGDRVTITCRASSSVSYMHWYQQKPGKAPKPLIYAPSNLASGVPSRFSGSGSGTDFTLTISSLQPEDFATYYCQQWSFNPPTFGQGTKVEIKRTVAAPSVFIFPPSDEQLKSGTASVVCLLNNFYPREAKVQWKVDNALQSGNSQESVTEQDSKDSTYSLSSTLTLSKADYEKHKVYACEVTHQGLSSPVTKSFNRGEC
chain 3: EVQLVQSGAEVKKPGASVKVSCKASGYTFTNYYIHWVRQAPGQGLEWIGWIYPGDGNTKYNEKFKGRATLTADTSTSTAYLELSSLRSEDTAVYYCARDSYSNYYFDYWGQGTLVTVSSASTKGPSVFPLAPSSKSTSGGTAALGCLVKDYFPEPVTVSWNSGALTSGVHTFPAVLQSSGLYSLSSVVTVPSSSLGTQTYICNVNHKPSNTKVDKKVEPKSCDKTHTCPPCPAPELLGGPSVFLFPPKPKDTLMISRTPEVTCVVVDVSHEDPEVKFNWYVDGVEVHNAKTKPREEQYGSTYRVVSVLTVLHQDWLNGKEYKCKVSNKALPAPIEKTISKAKGQPREPQVYTLPPSREEMTKNQVSLSCAVKGFYPSDIAVEWESNGQPENNYKTTPPVLDSDGSFFLVSKLTVDKSRWQQGNVFSCSVMHEALHNHYTQKSLSLSPGK
chain 4: not shown
B1 was tested. Which “EC50 of CD8 T-cell activation, CARNAVAL, E:T 1:1, 48 hours” value [1] did it give?
The value was 0.053 nM.

What about the “EC50 of CD8 T-cell activation, CARNAVAL, E:T 1:1, 72 hours” value [1] of the same binder?
Its value is 0.013 nM.

What about the “EC50 of CD8 T-cell activation, CARNAVAL, E:T 5:1, 48 hours” value [1] of the same binder?
The value was 0.038 nM.

And the “EC50 of CD8 T-cell activation, CARNAVAL, E:T 5:1, 72 hours” value [1]?
Its value is 0.021 nM.

What about the “EC50 of CD8 T-cell activation, HT, E:T 5:1, 48 hours” value [1] of the same binder?
The value was 0.148 nM.

What about the “EC50 of CD8 T-cell activation, HT, E:T 5:1, 72 hours” value [1] of the same binder?
The value was 0.078 nM.

And the “EC50 of CD8 T-cell activation, JEKO-1, E:T 1:1, 48 hours” value [1]?
Its value is 0.022 nM.

What about the “EC50 of CD8 T-cell activation, JEKO-1, E:T 1:1, 72 hours” value [1] of the same binder?
Its value is 0.021 nM.

And the “EC50 of CD8 T-cell activation, JEKO-1, E:T 5:1, 48 hours” value [1]?
The value was 0.043 nM.

What about the “EC50 of CD8 T-cell activation, JEKO-1, E:T 5:1, 72 hours” value [1] of the same binder?
The value was 0.019 nM.

And the “EC50 of CD8 T-cell activation, OCI-Ly10, E:T 1:1, 48 hours” value [1]?
The value was 0.045 nM.

And the “EC50 of CD8 T-cell activation, OCI-Ly10, E:T 1:1, 72 hours” value [1]?
Its value is 0.035 nM.

And the “EC50 of CD8 T-cell activation, OCI-Ly10, E:T 5:1, 48 hours” value [1]?
The value was 0.256 nM.

And the “EC50 of CD8 T-cell activation, OCI-Ly10, E:T 5:1, 72 hours” value [1]?
The value was 0.12 nM.

And the “EC50 of CD8 T-cell activation, WILL-2, E:T 5:1, 48 hours” value [1]?
The value was 1.24 nM.

And the “EC50 of CD8 T-cell activation, WILL-2, E:T 5:1, 72 hours” value [1]?
The value was 1.27 nM.

And the “EC50, autologous B-cell depletion, donor D198013” value [2]?
Its value is 0.2 nM.

And the “EC50, autologous B-cell depletion, donor D221837” value [2]?
The value was 0.5 nM.

What about the “EC50, autologous B-cell depletion, donor D329465” value [2] of the same binder?
Its value is 0.2 nM.

B2: 79C3B601 CD79bxCD3 bispecific antibody (bispecific antibody, human IgG1, kappa, L234A L235A)
heavy: QVQLQESGPGLVKPSETLSLTCSVSGASISSFYWSWIRQPADEGLEWIGRISPSGKTNYIPSLKSRIIMSLDASKNQFSLRLNSVTAADTAMYYCARGEYSGTYSYSFDVWGQGTMVTVSSASTKGPSVFPLAPSSKSTSGGTAALGCLVKDYFPEPVTVSWNSGALTSGVHTFPAVLQSSGLYSLSSVVTVPSSSLGTQTYICNVNHKPSNTKVDKKVEPKSCDKTHTCPPCPAPEAAGGPSVFLFPPKPKDTLMISRTPEVTCVVVSVSHEDPEVKFNWYVDGVEVHNAKTKPREEQYNSTYRVVSVLTVLHQDWLNGKEYKCKVSNKALPAPIEKTISKAKGQPREPQVYTLPPSREEMTKNQVSLSCAVKGFYPSDIAVEWESNGQPENNYKTTPPVLDSDGSFFLVSKLTVDKSRWQQGNVFSCSVMHEALHNRFTQKSLSLSPGK
light: DIVMTQSPLSLSVTPGEPASISCRSSESLLDSEDGNTYLDWFLQKPGQSPQLLIYTLSYRASGVPDRFSGSGSDTDFTLHISSLEAEDVGLYYCMQRMEFPLTFGQGTKVEIKRTVAAPSVFIFPPSDEQLKSGTASVVCLLNNFYPREAKVQWKVDNALQSGNSQESVTEQDSKDSTYSLSSTLTLSKADYEKHKVYACEVTHQGLSSPVTKSFNRGEC
chain: EIVLTQSPATLSASPGERVTLSCSASSSVSYMNWYQQKPGQAPRRWIYDSSKLASGVPARFSGSGSGRDYTLTISSLEPEDFAVYYCQQWSRNPPTFGGGTKVEIKGGSEGKSSGSGSESKSTGGSQVQLVQSGAEVKKPGSSVKVSCKASGYTFTRSTMHWVKQAPGQGLEWIGYINPSSAYTNYNQKFQGRVTLTADKSTSTAYMELSSLRSEDTAVYYCASPQVHYDYAGFPYWGQGTLVTVSSEPKSSDKTHTCPPCPAPEAAGGPSVFLFPPKPKDTLMISRTPEVTCVVVSVSHEDPEVKFNWYVDGVEVHNAKTKPREEQYNSTYRVVSVLTVLHQDWLNGKEYKCKVSNKALPAPIEKTISKAKGQPREPQVYTLPPSREEMTKNQVSLWCLVKGFYPSDIAVEWESNGQPENNYKTTPPVLDSDGSFFLYSKLTVDKSRWQQGNVFSCSVMHEALHNHYTQKSLSLSPGK
notes: IgG1, knobs-in-holes, Fc-gamma-receptor-silencing mutations; HC1/LC = CD79b Fab arm, third chain = CD3 scFv-Fc arm; also called 79C3B601 bsAb; CD9B374 x CD3B2030-N106A
Which Kd [3] does the source give for B2 here?
The Kd was greater than 3000 nM.

Reference: patent publication US20250043019A1 (Janssen / Centocor, published 2025)
